Results taken from US9395368B2, “Methods, agents and peptides for inducing an immune response to matrix metalloproteinase-2 expressing tumors” (New York University, priority 2010, dated 2016).

Columns and labels:
[1] = tested on: OX40L expression on DCs; assay: OX40L expression on DCs by surface staining; assay type: cell-based, human; conditions: immature and poly(I:C)-matured DCs, n=9, 24 h
Description: Immature and poly(I:C)-matured DCs were incubated with active or HI MMP-2 (0.5 μg/mL or 5 μg/mL) for 24 h. MMP-2 enzymatic activity was controlled (FIG. 13C-D). OX40L expression was assessed by surface staining (A) Histogram plots are shown for representative donor HD1228. Isotype control is represented in tinted gray. (B) Mean fluorescent intensities are represented for all 9 donors tested. […] P values≦0.0167 (*) were considered statistically significant using a Bonferroni correction for 3 comparisons for each DC type. See also FIG. 12.
Dendritic cell preparation and activation. PBMCs were purified from healthy—(HD) or cord blood—(CB) donors and plated at 40×10^6 cells/10 mL/dish in complete IMDM with 5% PHS. Cells were allowed to adhere for 2 h at 37° C. Non-adherent cells were removed. The monocyte-enriched fraction was supplemented with 100 UI/mL rhGMCSF and 300 UI/mL rhIL-4 (R&D Systems) on days 0, 2 and 4. Immature DCs were harvested on day 5 and matured using poly(I:C) at 5 μg/mL/10^6 DCs (Amersham) Secretion of IL-12p70, TNFα, IL-1β, IL-6, IL-8 and IL-10 was assessed on both immature and mature DCs using the Human Inflammatory Cytokine Cytometric Bead Array (BD Pharmingen).

[2] = tested on: Recombinant IL-12p70; assay: Incubation of recombinant IL-12p70 with MMP-2, IL-12p70 content by CBA; assay type: biochemical, human; conditions: rhIL-12 incubated for 24 h in the presence or absence of MMP-2
[3] = tested on: IL-12p35 and IL-12p40 in DCs; assay: Intracellular staining of IL-12p35 and IL-12p40 chains in DCs; assay type: cell-based, human
Description: (§1) Immature DCs were incubated with MMP-2 (0.5 μg/mL or 5 μg/mL) and poly(I:C)-matured 1 h later. IL-12 levels were measured 16 h later. (A) Results are represented as a percentage of IL-12p70 levels, measured by CBA, produced when DCs were incubated with poly(I:C) only (n=11). (B) For intracellular staining of IL-12p35 and IL-12p40 chains, Brefeldin A was added 4 h after poly(I:C) activation and cells were stained after an additional 12 h incubation. Numbers in the upper right quadrants are the percentages of each population for a representative donor (n=3). (C,D) Immature DCs were incubated with MMP-2 for 1 h (5 μg/mL) before poly(I:C) maturation. Intracellular staining of phosphorylated (Y701) STAT1 (P-STAT1) was performed 3 h later. A representative donor (C) and results for all 3 donors (D) are shown. […] (E) Immature DCs were incubated with MMP-2 and poly(I:C)-matured 1 h later. IFNβ levels were measured by ELISA 16 h later. Results are represented as a percentage of IFNβ levels produced when DCs were incubated with poly(I:C) only (n=9). (F,G) 10^6DCs/lane were treated with 0.1 μg MMP-2 or controls. Poly(I:C) was added 1 h later. IFNAR1 protein expression was detected the next day by Western blot analysis using a rabbit monoclonal antibody. A representative donor (F) and results for all 7 donors (G) are shown. (H) The rhIFNAR1 (5 μg; ≈110 kD) was incubated overnight with 0.3 μg MMP-2 before performing Western blot analysis for IFNAR1. The second band (around 90 kD) and the third band (25 kD) very likely correspond to either a degraded form of the protein still recognized by the antibody or a contaminant present in the commercial protein preparation and non-specifically recognized by the antibody. MMP-2 enzymatic activity was controlled (FIG. 13C-D). […]
(§2) Intracellular staining T-bet and GATA-3 expression was measured on resting T cells. […] Cytokine production by T cells was also assessed by intracellular staining T cells were stimulated with 2 μM overlapping peptides. […]

[4] = tested on: phosphorylated (Y701) STAT1; assay: Intracellular staining of phosphorylated (Y701) STAT1 in DCs; assay type: cell-based, human; conditions: DCs preincubated 1 h (5 μg/mL) prior to poly(I:C), 3 h
Description: as §1, with “(F,G) 10^6DCs/lane were treated with 0.1 μg MMP-2 or controls. Poly(I:C) was added 1 h later.” left out, “antibody.” for “antibody. A representative donor (F) and results for all 7 donors (G) are shown. (H) The rhIFNAR1 (5 μg; ≈110 kD) was incubated overnight with 0.3 μg MMP-2 before performing Western blot analysis for IFNAR1. The second band (around 90 kD) and the third band (25 kD) very likely correspond to either a degraded form of the protein still recognized by the antibody or a contaminant present in the commercial protein preparation and non-specifically recognized by the antibody. MMP-2 enzymatic activity was controlled (FIG. 13C-D).”
as §2

[5] = tested on: IFNβ production by DCs; assay: IFNβ levels produced by poly(I:C)-matured DCs (ELISA); assay type: cell-based, human; conditions: poly(I:C)-matured DCs pre-exposed, 16 h
Description: Immature DCs were incubated with MMP-2 (0.5 μg/mL or 5 μg/mL) and poly(I:C)-matured 1 h later. IL-12 levels were measured 16 h later. (A) Results are represented as a percentage of IL-12p70 levels, measured by CBA, produced when DCs were incubated with poly(I:C) only (n=11). (B) For intracellular staining of IL-12p35 and IL-12p40 chains, Brefeldin A was added 4 h after poly(I:C) activation and cells were stained after an additional 12 h incubation. Numbers in the upper right quadrants are the percentages of each population for a representative donor (n=3). (C,D) Immature DCs were incubated with MMP-2 for 1 h (5 μg/mL) before poly(I:C) maturation. Intracellular staining of phosphorylated (Y701) STAT1 (P-STAT1) was performed 3 h later. […] IFNβ levels were measured by ELISA 16 h later. […] IFNAR1 protein expression was detected the next day by Western blot analysis using a rabbit monoclonal antibody. […]
Enzyme-linked immunosorbent assay Activation of T cell clones (10,000 cells/100 μL/well), polyclonal T cell populations (100,000 cells/100 μL/well), DCs (50,000 cells/100 μL/well) and basophils (10,000 cells/100 μL/well) was determined by ELISA. IFNγ (BioSource), TNFα (BioSource), IL-4 (BioSource), TSLP (Quantikine; R&D Systems), IFNβ (VeriKine; PBL interferon source) and MCP-3 (DuoSet; R&D Systems) contents in supernatants were measured according to the manufacturer's instructions.

[6] = tested on: rhIFNAR1; assay: Overnight incubation of rhIFNAR1 with MMP-2 (Western blot); assay type: biochemical, human; conditions: incubated overnight
Description: Immature DCs were incubated with MMP-2 (0.5 μg/mL or 5 μg/mL) and poly(I:C)-matured 1 h later. IL-12 levels were measured 16 h later. (A) Results are represented as a percentage of IL-12p70 levels, measured by CBA, produced when DCs were incubated with poly(I:C) only (n=11). (B) For intracellular staining of IL-12p35 and IL-12p40 chains, Brefeldin A was added 4 h after poly(I:C) activation and cells were stained after an additional 12 h incubation. Numbers in the upper right quadrants are the percentages of each population for a representative donor (n=3). (C,D) Immature DCs were incubated with MMP-2 for 1 h (5 μg/mL) before poly(I:C) maturation. Intracellular staining of phosphorylated (Y701) STAT1 (P-STAT1) was performed 3 h later. A representative donor (C) and results for all 3 donors (D) are shown. […] (E) Immature DCs were incubated with MMP-2 and poly(I:C)-matured 1 h later. IFNβ levels were measured by ELISA 16 h later. Results are represented as a percentage of IFNβ levels produced when DCs were incubated with poly(I:C) only (n=9). (F,G) 10^6DCs/lane were treated with 0.1 μg MMP-2 or controls. Poly(I:C) was added 1 h later. IFNAR1 protein expression was detected the next day by Western blot analysis using a rabbit monoclonal antibody. […]
Western blots IFNAR1 and β-actin were detected by Western blot analysis using rabbit and mouse mAbs, respectively. […]

B1: active MMP-2: Purified human MMP-2 (mixture of the proenzyme (50%) and the active form (50%)) purchased from Biomol (protein, listed as Homo sapiens)
chain: MEALMARGALTGPLRALCLLGCLLSHAAAAPSPIIKFPGDVAPKTDKELAVQYLNTFYGCPKESCNLFVLKDTLKKMQKFFGLPQTGDLDQNTIETMRKPRCGNPDVANYNFFPRKPKWDKNQITYRIIGYTPDLDPETVDDAFARAFQVWSDVTPLRFSRIHDGEADIMINFGRWEHGDGYPFDGKDGLLAHAFAPGTGVGGDSHFDDDELWTLGEGQVVRVKYGNADGEYCKFPFLFNGKEYNSCTDTGRSDGFLWCSTTYNFEKDGKYGFCPHEALFTMGGNAEGQPCKFPFRFQGTSYDSCTTEGRTDGYRWCGTTEDYDRDKKYGFCPETAMSTVGGNSEGAPCVFPFTFLGNKYESCTSAGRSDGKMWCATTANYDDDRKWGFCPDQGYSLFLVAAHEFGHAMGLEHSQDPGALMAPIYTYTKNFRLSQDDIKGIQELYGASPDIDLGTGPTPTLGPVTPEICKQDIVFDGIAQIRGEIFFFKDRFIWRTVTPRDKPMGPLLVATFWPELPEKIDAVYEAPQEEKAVFFAGNEYWIYSASTLERGYPKPLTSLGLPPDVQRVDAAFNWSKNKKTYIFAGDKFWRYNEVKKKMDPGFPKLIADAWNAIPDNLDAVVDLQGGGHSYFFKGAYYLKLENQSLKSVKFGSIKSDWLGC
With B1 the “OX40L expression on DCs” value [1] was “significantly increased”, the “IL-12p70 levels after incubation of rhIL-12 with MMP-2” value [2] was “remained the same” and the IL-12p40 production [3] was “not affected overall”. The “IL-12p35 production, mean inhibition” value ([3]; pre-exposure of DCs) was 65%, the “DCs expressing the IL-12p35 subunit” value ([3]; pre-incubated before poly(I:C) activation, poly(I:C) only 4.33%±0.94) was 1.5%±0.22 and the STAT1 phosphorylation [4] was “decreased”. The IFNβ levels [5] was “decreased levels” and the “degradation of rhIFNAR1 (≈110 kD)” value [6] was “degraded”.
